The labels stand for the following.
B1: EPB41L3 (parent)
chain: FRFAPNHTKELEDKVIELHKSHRG
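Also: lentivirally expressed fusions sorted by FACS into six bins by GFP to DsRed ratio, PSI derived from sequencing read proportions per bin multiplied by bin number.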

This data set covers variants of B1. Nature of the data set: protein stability index of a GFP-peptide fusion (GPS, HEK-293T) (PSI 1-6); higher = more stable. The following applies: c terminus: a fixed tail appended.
FRFAPNHVKELEDKVIELHKSHRG [T8V]: the protein stability index was 1.98.

Turning to FRFAPNHFKELEDKVIELHKSHRG [T8F], the protein stability index was 2.3.

Regarding FRFAPNHIKELEDKVIELHKSHRG [T8I], the protein stability index is 2.49.

For the variant FRFAPNHCKELEDKVIELHKSHRG [T8C], the protein stability index was 2.02.

With FRFAPNHDKELEDKVIELHKSHRG [T8D], the protein stability index worked out at 2.01.

As for FRFAPNHLKELEDKVIELHKSHRG [T8L], the protein stability index worked out at 1.82.

On to FRFAPNHSKELEDKVIELHKSHRG [T8S], for which the protein stability index turned out to be 1.92.

As for FRFAPNHRKELEDKVIELHKSHRG [T8R], the protein stability index was 1.92.

As for FRFAPNHYKELEDKVIELHKSHRG [T8Y], the protein stability index was 2.05.

Turning to FRFAPNHAKELEDKVIELHKSHRG [T8A], the protein stability index is 2.11.

On to FRFAPNHHKELEDKVIELHKSHRG [T8H], for which the protein stability index was 1.74.

As to FRFAPNHPKELEDKVIELHKSHRG [T8P], the protein stability index is 1.75.

On to FRFAPNHWKELEDKVIELHKSHRG [T8W], for which the protein stability index came to 1.84.

In the case of FRFAPNHMKELEDKVIELHKSHRG [T8M], the protein stability index amounted to 2.21.

With FRFAPNHKKELEDKVIELHKSHRG [T8K], the protein stability index was determined as 2.39.

With FRFAPNHEKELEDKVIELHKSHRG [T8E], the protein stability index turned out to be 2.78.

FRFAPNHGKELEDKVIELHKSHRG [T8G]: the protein stability index was determined as 1.86.

For the variant FRFAPNHNKELEDKVIELHKSHRG [T8N], the protein stability index was found to be 2.17.

Regarding FRFAPNHTKEHEDKVIELHKSHRG [L11H], the protein stability index turned out to be 2.29.

For the variant FRFAPNHTKEKEDKVIELHKSHRG [L11K], the protein stability index was 2.53.

On to FRFAPNHTKEAEDKVIELHKSHRG [L11A], for which the protein stability index was 1.54.

In the case of FRFAPNHTKEIEDKVIELHKSHRG [L11I], the protein stability index worked out at 2.46.

For the variant FRFAPNHTKEREDKVIELHKSHRG [L11R], the protein stability index was 1.92.

FRFAPNHTKEFEDKVIELHKSHRG [L11F]: the protein stability index was determined as 2.48.

Consider FRFAPNHTKEGEDKVIELHKSHRG [L11G], for which the protein stability index came out at 2.89.

For FRFAPNHTKENEDKVIELHKSHRG [L11N], the protein stability index was determined as 1.65.

Turning to FRFAPNHTKEQEDKVIELHKSHRG [L11Q], the protein stability index came to 2.25.

In the case of FRFAPNHTKEDEDKVIELHKSHRG [L11D], the protein stability index came out at 2.53.

With FRFAPNHTKEEEDKVIELHKSHRG [L11E], the protein stability index was 1.97.

As for FRFAPNHTKEPEDKVIELHKSHRG [L11P], the protein stability index was 1.87.

On to FRFAPNHTKEMEDKVIELHKSHRG [L11M], for which the protein stability index stood at 1.83.

As for FRFAPNHTKECEDKVIELHKSHRG [L11C], the protein stability index turned out to be 2.18.

In the case of FRFAPNHTGELEDKVIELHKSHRG [K9G], the protein stability index came out at 2.04.

As for FRFAPNHTQELEDKVIELHKSHRG [K9Q], the protein stability index was 2.11.

For FRFAPNHTDELEDKVIELHKSHRG [K9D], the protein stability index stood at 1.82.

On to FRFAPNHTRELEDKVIELHKSHRG [K9R], for which the protein stability index was determined as 1.7.

Take FRFAPNHTLELEDKVIELHKSHRG [K9L]: the protein stability index was determined as 1.47.

For FRFAPNHTNELEDKVIELHKSHRG [K9N], the protein stability index was 2.39.

For the variant FRFAPNHTYELEDKVIELHKSHRG [K9Y], the protein stability index is 1.99.

For the variant FRFAPNHTCELEDKVIELHKSHRG [K9C], the protein stability index is 2.44.

For FRFAPNHTHELEDKVIELHKSHRG [K9H], the protein stability index was found to be 2.06.

Take FRFAPNHTPELEDKVIELHKSHRG [K9P]: the protein stability index turned out to be 2.15.

Consider FRFAPNHTIELEDKVIELHKSHRG [K9I], for which the protein stability index came out at 2.56.

On to FRFAPNHTEELEDKVIELHKSHRG [K9E], for which the protein stability index worked out at 2.21.

In the case of FRFAPNHTWELEDKVIELHKSHRG [K9W], the protein stability index is 2.34.

Take FRFAPNHTVELEDKVIELHKSHRG [K9V]: the protein stability index was found to be 2.24.

For the variant FRFAPNHTFELEDKVIELHKSHRG [K9F], the protein stability index came out at 2.14.

On to FRFAPNHTTELEDKVIELHKSHRG [K9T], for which the protein stability index came to 1.37.

For FRFAPNHTAELEDKVIELHKSHRG [K9A], the protein stability index came to 1.71.

Take FRFAPNHTMELEDKVIELHKSHRG [K9M]: the protein stability index came out at 1.77.

Regarding FRFAPNHTSELEDKVIELHKSHRG [K9S], the protein stability index amounted to 2.88.

On to FRFAPNTTKELEDKVIELHKSHRG [H7T], for which the protein stability index stood at 1.91.

Turning to FRFAPNETKELEDKVIELHKSHRG [H7E], the protein stability index amounted to 1.96.

For FRFAPNATKELEDKVIELHKSHRG [H7A], the protein stability index amounted to 2.83.

As for FRFAPNLTKELEDKVIELHKSHRG [H7L], the protein stability index worked out at 1.62.

On to FRFAPNCTKELEDKVIELHKSHRG [H7C], for which the protein stability index came to 1.47.

Turning to FRFAPNDTKELEDKVIELHKSHRG [H7D], the protein stability index was 2.96.

In the case of FRFAPNGTKELEDKVIELHKSHRG [H7G], the protein stability index stood at 2.42.

With FRFAPNNTKELEDKVIELHKSHRG [H7N], the protein stability index came out at 2.16.

FRFAPNMTKELEDKVIELHKSHRG [H7M]: the protein stability index is 2.3.

On to FRFAPNYTKELEDKVIELHKSHRG [H7Y], for which the protein stability index stood at 2.07.

Regarding FRFAPNPTKELEDKVIELHKSHRG [H7P], the protein stability index was 2.1.

With FRFAPNVTKELEDKVIELHKSHRG [H7V], the protein stability index is 1.85.

As to FRFAPNRTKELEDKVIELHKSHRG [H7R], the protein stability index came to 2.11.

Regarding FRFAPNQTKELEDKVIELHKSHRG [H7Q], the protein stability index was 2.28.

Turning to FRFAPNWTKELEDKVIELHKSHRG [H7W], the protein stability index is 1.6.

Take FRFAPNITKELEDKVIELHKSHRG [H7I]: the protein stability index is 2.09.

In the case of FRFAPNFTKELEDKVIELHKSHRG [H7F], the protein stability index turned out to be 1.73.

As to FRFAPNSTKELEDKVIELHKSHRG [H7S], the protein stability index came to 1.93.

For FRFAPNKTKELEDKVIELHKSHRG [H7K], the protein stability index is 1.88.

With FRFAPNHTKMLEDKVIELHKSHRG [E10M], the protein stability index came out at 1.69.

Take FRFAPNHTKALEDKVIELHKSHRG [E10A]: the protein stability index was determined as 1.97.

Turning to FRFAPNHTKKLEDKVIELHKSHRG [E10K], the protein stability index worked out at 2.59.

With FRFAPNHTKSLEDKVIELHKSHRG [E10S], the protein stability index was determined as 2.07.

Regarding FRFAPNHTKNLEDKVIELHKSHRG [E10N], the protein stability index worked out at 1.41.

Consider FRFAPNHTKILEDKVIELHKSHRG [E10I], for which the protein stability index was found to be 2.07.

As to FRFAPNHTKYLEDKVIELHKSHRG [E10Y], the protein stability index was 1.97.

Consider FRFAPNHTKTLEDKVIELHKSHRG [E10T], for which the protein stability index came out at 1.84.

For the variant FRFAPNHTKGLEDKVIELHKSHRG [E10G], the protein stability index was 2.04.

Consider FRFAPNHTKCLEDKVIELHKSHRG [E10C], for which the protein stability index turned out to be 1.46.

Turning to FRFAPNHTKDLEDKVIELHKSHRG [E10D], the protein stability index was 1.9.

Turning to FRFAPNHTKHLEDKVIELHKSHRG [E10H], the protein stability index amounted to 1.81.

Regarding FRFAPNHTKVLEDKVIELHKSHRG [E10V], the protein stability index was 1.73.

For FRFAPNHTKLLEDKVIELHKSHRG [E10L], the protein stability index came to 1.9.

On to FRFAPNHTKWLEDKVIELHKSHRG [E10W], for which the protein stability index was 1.21.

Take FRFAPNHTKRLEDKVIELHKSHRG [E10R]: the protein stability index turned out to be 1.95.

Turning to FRFAPNHTKQLEDKVIELHKSHRG [E10Q], the protein stability index was 1.68.

In the case of FRFAPNHTKFLEDKVIELHKSHRG [E10F], the protein stability index is 1.22.

In the case of FRFAPNHTKPLEDKVIELHKSHRG [E10P], the protein stability index stood at 1.63.

As for FRFAPQHTKELEDKVIELHKSHRG [N6Q], the protein stability index stood at 2.02.

Consider FRFAPSHTKELEDKVIELHKSHRG [N6S], for which the protein stability index was determined as 2.17.

As for FRFAPTHTKELEDKVIELHKSHRG [N6T], the protein stability index is 2.08.

Take FRFAPVHTKELEDKVIELHKSHRG [N6V]: the protein stability index was found to be 1.53.

Regarding FRFAPRHTKELEDKVIELHKSHRG [N6R], the protein stability index was determined as 2.03.
